Values quoted from earlier work, collected in PMC4452855.

Target: IFN-λ1 (Homo sapiens) (UniProt Q8IU54)
Sequence of UniProt Q8IU54 (Q8IU54 20-200): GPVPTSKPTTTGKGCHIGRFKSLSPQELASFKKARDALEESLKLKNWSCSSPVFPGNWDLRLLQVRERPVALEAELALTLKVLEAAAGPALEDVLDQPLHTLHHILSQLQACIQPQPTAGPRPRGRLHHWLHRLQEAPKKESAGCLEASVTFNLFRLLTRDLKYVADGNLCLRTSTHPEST

Kd: 73 nM
Substance: sIFN-λR1 short splice variant (from UniProt Q8IU57)
